According to the supplement of paper PMC9170038:

System: MS2 coat protein
Assay: apparent KD of MS2 coat protein; designed switch direction (-1 OFF switch, 1 ON switch): -1; higher = weaker reporter binding
Procedure, shortened: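 SNAP-549-labelled MS2 coat protein was titrated, doubling from 0.7 or 1.5 nM to 3 µM, over designed RNA switches transcribed on Illumina chips by stalled E. coli RNA polymerase. Runs were done without input, with 200 uM small-molecule ligand, or with an oligonucleotide input. Apparent KD is the per-design median over clusters of curve-fitted normalised fluorescence.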

[1] = Eterna round: R95, input ligand: microRNA oligo, concentration not stated
[2] = input ligand: microRNA oligo, concentration not stated
[3] = Eterna round: R95, input ligand: FMN 200 uM
[4] = Eterna round: R95, input ligand: none

| Sequence | apparent KD of MS2 coat protein (input ligand: FMN 200 uM) [nM] | apparent KD of MS2 coat protein (input ligand: none) [nM] | apparent KD of MS2 coat protein [1] [nM] | apparent KD of MS2 coat protein [2] [nM] | apparent KD of MS2 coat protein [3] [nM] | apparent KD of MS2 coat protein [4] [nM] |
| --- | --- | --- | --- | --- | --- | --- |
| CGCACCACAUGAGGAUCAAACAUGAGGAUCACCCAUGUAUAACAAGCUUUUUGCUCGUCUUAUAAAUAUGUGGUGCG [Electric Eye 3 - Jieux - Sensor, turn-off variant 1] (Eterna round: R97, puzzle: Sensor, turn-off variant 1) | 13.9 | 14.2 | – | – | – | – |
| AAAGACAGAGGAUAUGCACGCCGACCCGGGCGGGAAGUCGGACAUGAGGAUCACCCAUGUAGAAGGCUGAGAAA [Exclss2-VII] (puzzle: Exclusion 2) | – | – | 10.5 | – | – | – |
| GCACAGACAGGAUAUACAUGAGGAUCACCCAUGUGACCCUUAUAGUACUCGCGUACAAGUAGAAGGGUCUGUGC [Omei Ex3 Model Bachelor's Dilema v32] (Eterna round: R97, puzzle: Exclusion 3) | 320 | 832 | – | – | – | – |
| UAUUUAAUUAACAAGCUUUACAUGAGGAUCACCCAUGUGAUCAUGCUCGUCUUAUAAUUAAUUAAUUAAUUAAUUAA [Stov1/6-A2] (Eterna round: R97, puzzle: Sensor, turn-off variant 1) | 51.6 | 62.8 | – | – | – | – |
| GGGCUGUCAGGAUAUGUGUGUGUGUGUGAAAGCGCGCGCGCGCAGAAGGGACAUGAGGAUCACCCAUGUGGCCC [-35.3, -34.3 kcal, A 20%, 6bis-0] (Eterna round: R97, puzzle: Exclusion 4) | 32.1 | 33 | – | – | – | – |
| UAUUAGCAAGUAAGGUCCCACAUGAGGAUCACCCAUGUGCUCGUCUUAUAAGGUACUGUGACGAAAGUCACGGUACC [Sensor 3, v1 - 95] (Eterna round: R96, puzzle: Sensor v3, turn-off variant 1) | 22 | 23.6 | – | 326 | – | – |
| AGCGAGCUAGGAUAUACAUGAGGAUCACCCAUGUCUUUUUAGUACUACGGUGGAAGAUGUAGAAGGAGUGAGAA [Soisza] (puzzle: Exclusion 3) | – | – | 92.3 | – | – | – |
| CUUAUGUGAGGAUAUGGUGUUGGCCACAGGAAAAAGAUCCUCCAGAAGGCACAUGAGGAUCACCCAUGUAGUGA [Jolly's Folly 30 - Jieux - Exclusion 4] (Eterna round: R96, puzzle: Exclusion 4) | 220 | 57.2 | – | 54.5 | – | – |
| CCCUUUCAGGCAGGAUAUGUUCAUUUGUGAAUGGUGCCUACCUCACAUGAGGAUCACCCAUGUGGACAGAAGGGCCGGUGAAAA [Eternabot solution 26] (Eterna round: R96, puzzle: Exclusion NG 2) | 120 | 25.7 | – | 25.5 | – | – |
| GUAAAGUGAGGAUAUGGUAAAUUAAUUAUUAAUUAAUUAAUCCAGAAGGCACAUGAGGAUCACCCAUGUAAUUG [Mat - Exclusion 4 - D86] (puzzle: Exclusion 4) | – | – | 22.2 | – | – | – |
| AGGAAUCUAGGAUAUAUAUGAAACGAUCCAGAUUCAAGGAAACAUGAGGAUCACCCAUGUAGAAGGAGAGAAAA [EX2 A.17] (Eterna round: R97, puzzle: Exclusion 2) | 23.4 | 21.5 | – | – | – | – |
| CCACGACAUGAGGAUCACCCAUGUGAGGAUAUGGCCUGUAAGGCGUGAGCUGAAUCAAUCAGAAGGCGCGUGGG [salish99_ex1_r4_057] (Eterna round: R97, puzzle: Exclusion 1) | 92.4 | 50.6 | – | – | – | – |
| AGUAGGAGAGGAUAUACAUGAAGUCGAAAGACUUCGACUCAACAUGAGGAUCACCCAUGUAGAAGGCUCCUACA [Omei Ex2 BD A7] (Eterna round: R97, puzzle: Exclusion 2) | 126 | 47.3 | – | – | – | – |
| CCUUAGUUAGGAUAUCGGAUUGUUCACGGUGCUCACCGGGUCGAGAAGGAACAUGAGGAUCACCCAUGUCACGA [Eternabot (L1) Solution 72] (Eterna round: R97, puzzle: Exclusion 4) | 60.1 | 42.5 | – | – | – | – |
| AUUGUUUAUGUAGGAUAUGCCUGGCGUGCCUUCGCAGAAGGACAUGAGGAUCACCCAUGUAUUGCGGUCUGCGUUCAGAUCGCU [salish99_ExNG1_r4_025] (Eterna round: R96, puzzle: Exclusion NG 1) | 75 | 55.4 | – | 30.6 | – | – |
| AGUAGAUCUACGCUUGCGUGGAUCUGCAAUGCAGGUGUUACAUGAGGAUCACCCAUGUCCUCGUUUGCUCGUCUUAG [JL turnoff v2 99.11] (puzzle: Sensor v3, turn-off variant 2) | – | – | 508 | – | 145 | 133 |
| GUGAAGUAAGGAUAUACAUGAGGAUCACCCAUGUGGAGGAAGGUGAUGGGAGUAGGUAGUAGAAGGUACGAGGA [JR_Exclu3_Sub064] (Eterna round: R96, puzzle: Exclusion 3) | 304 | 207 | – | 134 | – | – |

| Sequence | apparent KD of MS2 coat protein (input ligand: FMN 200 uM) [nM] | apparent KD of MS2 coat protein (input ligand: none) [nM] | apparent KD of MS2 coat protein [1] [nM] | apparent KD of MS2 coat protein [2] [nM] | apparent KD of MS2 coat protein [3] [nM] | apparent KD of MS2 coat protein [4] [nM] |
| --- | --- | --- | --- | --- | --- | --- |
| GUAAACGAAGAGGAUAUAUGAUAUCAAAGCUUCAUAGAAGGCUUCACAUGAGGAUCACCCAUGUGAUCUUCAAG [Mat - Exclusion 6 - JL Mod - D25] (Eterna round: R97, puzzle: Exclusion 6) | 354 | 71.5 | – | – | – | – |
| GUUAUUAAUGUAGGAUAUGCAAGGCGAACCUAAGCAGAAGGACAUGAGGAUCACCCAUGUAUUGCGGUCUGCGUUCAGAUCGCU [salish99_ExNG1_r4_012] (Eterna round: R96, puzzle: Exclusion NG 1) | 39.9 | 19.4 | – | 15.8 | – | – |
| GCUGGACGAGGAUAUGCAUUCGUGCUUCGGCACGUAAGGUCACAUGAGGAUCACCCAUGUAGAAGGUGUCCAGC [E2/6-B2] (Eterna round: R97, puzzle: Exclusion 2) | 24.1 | 18.4 | – | – | – | – |
| CAGUACUGAGGAUAUACAUGAGGAUCACCCAUGUGUUCCAGGUAGGAAACUAGCAAAAGUAGAAGGCAGUACUG [salish99_ex3_r3_078] (Eterna round: R96, puzzle: Exclusion 3) | – | – | – | 17.5 | – | – |
| UUUGUAUAGGUAGGAUAUACUUUCAAUUUUUUUUUCCUUACAUGAGGAUCACCCAUGUUUACAUUGUAGAAGGACCUCAUUGUU [JR_ExcNG2_Sub049] (Eterna round: R96, puzzle: Exclusion NG 2) | – | – | – | 325 | – | – |
| GUGAGACAUGAGGAUCACCCAUGUGAGGAUAUCCGAAGGACCAAAUUAAGAAUAGAAGGGAGAAGGCACAUAAA [Exclusion 1 V6] (puzzle: Exclusion 1) | – | – | 68.4 | – | 128 | 157 |
| UCUUAGUCAGGAUAUACAUGAGGAUCACCCAUGUAAAAUUUUAAUUUAAUUUUAAGGUGUAGAAGGGACCACUU [Ex3 #19] (Eterna round: R97, puzzle: Exclusion 3) | 22.2 | 29 | – | – | – | – |
| UUCGUGUAAGGAUAUACGACUCAUCCCAAUGGGACGAGCACGUAGAAGGUACAUGAGGAUCACCCAUGUGCUCC [Eddianle] (Eterna round: R96, puzzle: Exclusion 4) | 284 | 39.9 | – | 33.3 | – | – |
| CCCGCAGGUUUUUUGCUCGACAUGAGGAUCACCCAUGUUGCGUGGGUUGUGUGUGUGUGGUGCAUAUAUAUGGUCCU [-25.4, -48.9 kcal, A 14%] (Eterna round: R97, puzzle: Sensor, turn-off variant 1) | 300 | 350 | – | – | – | – |
| GGGCUUAAAGGAUAUGCAAGGAGCCACAUGAGGAUCACCCAUGUACAACCUCAGUCCCUGGUAGAAGGUUACGCAA [whoooo] (Eterna round: R97, puzzle: Exclusion 5) | 35 | 30.6 | – | – | – | – |
| ACAUGAGGAUCACCCAUGUCAACGAAAAGGCUCAUGUAGAGUGAGGAUAUGUGAGACGAACGAGAACAGAAGGCACAAGACAGG [Deportation 3 - Jieux - Exclusion NG 3] (Eterna round: R96, puzzle: Exclusion NG 3) | 31.8 | 38.4 | – | 16.6 | – | – |
| AAAUAGGGAGGAUAUCCAAUAUAUGACAUGAGGAUCACCCAUGUUUCCACUCGUACCUCCGGAGAAGGCCCAUAAU [Ex5 #2] (Eterna round: R97, puzzle: Exclusion 5) | 25.8 | 23.9 | – | – | – | – |
| AUAUUUAAUGAGGAUAUCGUUGUAGGUAUAUAGCGAGAAGGCAUUACAUGAGGAUCACCCAUGUAGUGUGGGUU [JR_Ex6_Sub021] (Eterna round: R97, puzzle: Exclusion 6) | 78.7 | 23.7 | – | – | – | – |
| AACAGGUCAGGAUAUACAUGAGGAUCACCCAUGUAGACUUCUAGUCUACCGAGGCUGUGUAGAAGGGACCUGAA [Exclusion 3 (MOD4 of #98 Marzena11)] (Eterna round: R97, puzzle: Exclusion 3) | 175 | 43.3 | – | – | – | – |
| CCUACUCCCGUUAGGAUAUGUGGAGGCGUACCUCCGUAGAAGGAACAUGAGGAUCACCCAUGUCGCUGUCAUGC [Eternabot (L2) Solution 90] (Eterna round: R97, puzzle: Brourd's mod of Exclusion 4) | 18.4 | 19.9 | – | – | – | – |
| GUUUCACAUGAGGAUCACCCAUGUGAGGAUAUCAAUUUGUUAACCGUAGUUAAUAGAUUGAGAAGGCGCGUGAU [JRxlusion 2- Jieux - Exclusion 1] (Eterna round: R97, puzzle: Exclusion 1) | 64.5 | 49 | – | – | – | – |
| GAUCAACAUGAGGAUCACCCAUGUGAGGAUAUGAUACUAUGUACUUCGGUACAUAGUAUCAGAAGGCACUAGGA [Ex1-3: 40] (puzzle: Exclusion 1) | – | – | 64 | – | – | – |
